Assay results published in patent US20240158475A1.
Numbering of substitutions follows the chain as printed. Values belong to the binder of their own block, whether it stands above or below them.

Target: DN-III quality control recombinant protein (produced by Fapon Biotech InC.) (dengue virus)
Experiment: BLI, AMC sensor, antibody captured

Kd: 0.46 nM
koff: 3.86e-05 s⁻¹
kon: 44600 M⁻¹ s⁻¹
B1: Mutation 1-23 (antibody, V domains shown)
VH: EVQLQQSGTELVRPGALVKLSCKASGFNIKDYYLHWVKQRPRQGLEWIGWIDPENGKTIYDPKFQDKASITSDTSTNTAYLQLRSLTSEDTAVYYCVTAYFRFVYWGQGTLVTVSA
VL: QIVLTQSPAIMSAFPGERVTMTCSASSSVRYMYWHQQKPGSSPRLLIYDTSNVASGVPVRFSGSGSGTSYSLTISRDEAMDAATYYCQQWSSTPRTFGGGTKLEIKR

Kd: 0.34 nM
koff: 1.53e-05 s⁻¹
kon: 44900 M⁻¹ s⁻¹
B2: Mutation 1-36 (antibody, V domains shown)
VH: B1 VH with L34V
VL: B1 VL with V53L, T93F

Kd: 0.32 nM
koff: 1.51e-05 s⁻¹
kon: 47400 M⁻¹ s⁻¹
B3: Mutation 1-3 (antibody, V domains shown)
VH: B1 VH with L34V, T98S, F101V
VL: B1 VL with S27T, V53I

Kd: 0.35 nM
koff: 1.71e-05 s⁻¹
kon: 48500 M⁻¹ s⁻¹
B4: Mutation 1-37 (antibody, V domains shown)
VH: B1 VH with L34I, I59L, T98S, F101Y
VL: B1 VL with S27T

Kd: 0.44 nM
koff: 1.34e-05 s⁻¹
kon: 30600 M⁻¹ s⁻¹
B5: Mutation 1-34 (antibody, V domains shown)
VH: B1 VH with L34I, T98S, F101V
VL: B1 VL with V53L, T93F

Kd: 0.79 nM
koff: 3.47e-05 s⁻¹
kon: 44100 M⁻¹ s⁻¹
B6: Mutation 1-41 (antibody, V domains shown)
VH: B1 VH with T98S, F101Y
VL: B1 VL with S27T, V53I, T93Y

Kd: 0.45 nM
koff: 1.35e-05 s⁻¹
kon: 30100 M⁻¹ s⁻¹
B7: Mutation 1-9 (antibody, V domains shown)
VH: B1 VH with L34V, I59L, T98S, F101V
VL: B1 VL with V53I

Kd: 1.04 nM
koff: 4.35e-05 s⁻¹
kon: 41900 M⁻¹ s⁻¹
B8: Mutation 1-35 (antibody, V domains shown)
VH: B1 VH with I59L, T98S, F101Y
VL: B1 VL with S27T

Kd: 11.9 nM
koff: 4.95e-05 s⁻¹
kon: 4150 M⁻¹ s⁻¹
B9: WT 1-4 (antibody, V domains shown)
VH: B1 VH with D31E, E54D, I59L, F64V, F101Y
VL: B1 VL with R30K, D49E, V53L, V57F, W90Q, T93F

Kd: 0.8 nM
koff: 3.72e-05 s⁻¹
kon: 46700 M⁻¹ s⁻¹
B10: Mutation 1-6 (antibody, V domains shown)
VH: B1 VH with L34V, F101V
VL: B1 VL with S27T, V53I

Kd: 0.78 nM
koff: 2.89e-05 s⁻¹
kon: 37000 M⁻¹ s⁻¹
B11: Mutation 1-28 (antibody, V domains shown)
VH: B1 VH with L34I, I59L, T98S
VL: B1 VL with S27T, V53L, T93Y

Kd: 0.8 nM
koff: 3.04e-05 s⁻¹
kon: 38100 M⁻¹ s⁻¹
B12: Mutation 1-16 (antibody, V domains shown)
VH: B1 VH with L34I, I59L, T98S, F101V
VL: B1 VL with T93Y

Kd: 0.43 nM
koff: 2.11e-05 s⁻¹
kon: 49700 M⁻¹ s⁻¹
B13: Mutation 1-5 (antibody, V domains shown)
VH: B1 VH with T98S, F101Y
VL: B1 VL with S27T, T93F

Kd: 5.3 nM
koff: 1.64e-05 s⁻¹
kon: 3120 M⁻¹ s⁻¹
B14: WT 1-20 (antibody, V domains shown)
VH: B1 VH with D31E, L34I, E54D, I59L, F64V, T98S
VL: B1 VL with R30K, D49E, V53I, V57F, W90Q, T93Y

Kd: 0.87 nM
koff: 2.83e-05 s⁻¹
kon: 32400 M⁻¹ s⁻¹
B15: Mutation 1-11 (antibody, V domains shown)
VH: B1 VH with I59L, T98S, F101Y
VL: B1 VL with T93F

Kd: 0.111 nM
koff: 4.53e-05 s⁻¹
kon: 408000 M⁻¹ s⁻¹
B16: Mutation 1-14 (antibody, V domains shown)
VH: B1 VH with I59L, T98S, F101V
VL: B1 VL with S27T, T93F

Kd: 0.42 nM
koff: 1.89e-05 s⁻¹
kon: 45200 M⁻¹ s⁻¹
B17: Mutation 1-15 (antibody, V domains shown)
VH: B1 VH with L34V, F101Y
VL: B1 VL with S27T, V53I

Kd: 6 nM
koff: 2.28e-05 s⁻¹
kon: 3770 M⁻¹ s⁻¹
B18: WT 1-1 (antibody, V domains shown)
VH: B1 VH with D31E, L34I, E54D, F64V
VL: B1 VL with S27T, R30K, D49E, V53I, V57F, W90Q, T93Y

Kd: 0.35 nM
koff: 1.23e-05 s⁻¹
kon: 35200 M⁻¹ s⁻¹
B19: Mutation 1-32 (antibody, V domains shown)
VH: B1 VH
VL: B1 VL with V53I

Kd: 0.7 nM
koff: 2.33e-05 s⁻¹
kon: 33200 M⁻¹ s⁻¹
B20: Mutation 1-8 (antibody, V domains shown)
VH: B1 VH with F101Y
VL: B1 VL with S27T, T93F

Kd: 1.09 nM
koff: 4.55e-05 s⁻¹
kon: 41800 M⁻¹ s⁻¹
B21: Mutation 1-12 (antibody, V domains shown)
VH: B1 VH with L34V, I59L
VL: B1 VL with S27T, V53I

Kd: 0.36 nM
koff: 1.37e-05 s⁻¹
kon: 37800 M⁻¹ s⁻¹
B22: Mutation 1-38 (antibody, V domains shown)
VH: B1 VH with I59L
VL: B1 VL with V53I, T93Y

Kd: 3.7 nM
koff: 1.53e-05 s⁻¹
kon: 4090 M⁻¹ s⁻¹
B23: WT 1-7 (antibody, V domains shown)
VH: B1 VH with D31E, L34V, E54D, F64V, T98S, F101V
VL: B1 VL with S27T, R30K, D49E, V57F, W90Q

Kd: 1.14 nM
koff: 4.21e-05 s⁻¹
kon: 36900 M⁻¹ s⁻¹
B24: Mutation 1-10 (antibody, V domains shown)
VH: B1 VH with L34I, T98S
VL: B1 VL with S27T, V53L, T93Y

Kd: 0.11 nM
koff: 3.91e-05 s⁻¹
kon: 357000 M⁻¹ s⁻¹
B25: Mutation 1-7 (antibody, V domains shown)
VH: B1 VH with L34I, I59L
VL: B1 VL with V53L, T93Y

Kd: 0.49 nM
koff: 2.08e-05 s⁻¹
kon: 42400 M⁻¹ s⁻¹
B26: Mutation 1-13 (antibody, V domains shown)
VH: B1 VH with L34I, F101Y
VL: B1 VL with V53L, T93Y

Kd: 0.111 nM
koff: 3.47e-05 s⁻¹
kon: 312000 M⁻¹ s⁻¹
B27: Mutation 1-26 (antibody, V domains shown)
VH: B1 VH with I59L, F101Y
VL: B1 VL with T93Y

Kd: 0.121 nM
koff: 3.66e-05 s⁻¹
kon: 303000 M⁻¹ s⁻¹
B28: Mutation 1-27 (antibody, V domains shown)
VH: B1 VH with L34V, T98S, F101V
VL: B1 VL with V53L

Kd: 0.53 nM
koff: 1.74e-05 s⁻¹
kon: 37700 M⁻¹ s⁻¹
B29: Mutation 1-24 (antibody, V domains shown)
VH: B1 VH with L34V, I59L, F101V
VL: B1 VL with S27T, V53I, T93Y

Kd: 0.99 nM
koff: 4.68e-05 s⁻¹
kon: 47500 M⁻¹ s⁻¹
B30: Mutation 1-33 (antibody, V domains shown)
VH: B1 VH with L34V, I59L, F101Y
VL: B1 VL with S27T, V53I, T93Y

Kd: 1.09 nM
koff: 1.78e-05 s⁻¹
kon: 33900 M⁻¹ s⁻¹
B31: Mutation 1-25 (antibody, V domains shown)
VH: B1 VH with L34I
VL: B1 VL with V53L

Kd: 0.83 nM
koff: 3.75e-05 s⁻¹
kon: 45100 M⁻¹ s⁻¹
B32: Mutation 1-39 (antibody, V domains shown)
VH: B1 VH with L34V
VL: B1 VL with S27T, V53L, T93F

Kd: 0.95 nM
koff: 3.56e-05 s⁻¹
kon: 37600 M⁻¹ s⁻¹
B33: Mutation 1-30 (antibody, V domains shown)
VH: B1 VH with L34V
VL: B1 VL with V53I, T93Y

Kd: 0.103 nM
koff: 4.99e-05 s⁻¹
kon: 483000 M⁻¹ s⁻¹
B34: Mutation 1-2 (antibody, V domains shown)
VH: B1 VH with I59L, F101Y
VL: B1 VL with T93F

Kd: 0.72 nM
koff: 2.38e-05 s⁻¹
kon: 33100 M⁻¹ s⁻¹
B35: Mutation 1-1 (antibody, V domains shown)
VH: B1 VH with L34I
VL: B1 VL with S27T, V53L, T93Y

Kd: 0.29 nM
koff: 1.04e-05 s⁻¹
kon: 36200 M⁻¹ s⁻¹
B36: Mutation 1-4 (antibody, V domains shown)
VH: B1 VH with L34I, I59L, T98S
VL: B1 VL with V53L, T93Y

Kd: 0.115 nM
koff: 3.94e-05 s⁻¹
kon: 344000 M⁻¹ s⁻¹
B37: Mutation 1-31 (antibody, V domains shown)
VH: B1 VH with L34I, I59L, F101V
VL: B1 VL with S27T, V53L, T93F

Kd: 0.9 nM
koff: 3.23e-05 s⁻¹
kon: 35700 M⁻¹ s⁻¹
B38: Mutation 1-29 (antibody, V domains shown)
VH: B1 VH with T98S, F101Y
VL: B1 VL with S27T, T93Y

Kd: 0.115 nM
koff: 4.95e-05 s⁻¹
kon: 432000 M⁻¹ s⁻¹
B39: Mutation 1-40 (antibody, V domains shown)
VH: B1 VH with L34I, I59L, F101V
VL: B1 VL
